T1: claudin-18.2 antigen (manufacturer: GenScript, batch number: R50092011) (UniProt P56856-2 1-261, limits assumed)
T1 construct: Bought antigen
T1 sequence (looked up): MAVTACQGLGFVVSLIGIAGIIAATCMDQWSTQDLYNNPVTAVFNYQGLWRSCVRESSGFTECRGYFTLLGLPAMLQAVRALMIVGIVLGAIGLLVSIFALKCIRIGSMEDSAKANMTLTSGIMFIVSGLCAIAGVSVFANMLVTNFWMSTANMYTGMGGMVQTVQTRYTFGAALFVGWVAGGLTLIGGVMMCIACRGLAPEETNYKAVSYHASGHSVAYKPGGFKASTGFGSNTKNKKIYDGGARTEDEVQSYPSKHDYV

B1: 1B6-huVH2huVL1 (antibody, human IgG4 S228P, kappa)
heavy: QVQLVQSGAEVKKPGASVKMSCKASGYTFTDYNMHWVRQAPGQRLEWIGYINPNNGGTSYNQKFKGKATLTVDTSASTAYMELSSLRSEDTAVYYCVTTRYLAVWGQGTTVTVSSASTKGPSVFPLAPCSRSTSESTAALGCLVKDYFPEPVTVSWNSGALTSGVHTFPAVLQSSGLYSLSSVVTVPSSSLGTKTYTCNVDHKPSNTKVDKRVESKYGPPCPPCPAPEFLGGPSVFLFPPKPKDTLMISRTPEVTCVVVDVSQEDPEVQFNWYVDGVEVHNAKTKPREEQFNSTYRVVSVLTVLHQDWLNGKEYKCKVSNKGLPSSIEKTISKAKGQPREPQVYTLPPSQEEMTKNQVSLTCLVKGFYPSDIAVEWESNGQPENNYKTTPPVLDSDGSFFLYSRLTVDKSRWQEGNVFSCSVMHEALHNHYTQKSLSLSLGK
light: DIVMTQSPSSLSVSVGDRVTMTCKSSQSLFNSGNQKNYLTWYQQKPGKAPKLLIYWASTRESGVPDRFSGSGSGTDFTLTISSVQPEDFATYFCQNDYSYPLTFGGGTKLEIKRTVAAPSVFIFPPSDEQLKSGTASVVCLLNNFYPREAKVQWKVDNALQSGNSQESVTEQDSKDSTYSLSSTLTLSKADYEKHKVYACEVTHQGLSSPVTKSFNRGEC
notes: humanized 1B6, human IgG4, kappa
B2: 1B6-huVH2huVL2 (antibody, human IgG4 S228P, kappa)
heavy: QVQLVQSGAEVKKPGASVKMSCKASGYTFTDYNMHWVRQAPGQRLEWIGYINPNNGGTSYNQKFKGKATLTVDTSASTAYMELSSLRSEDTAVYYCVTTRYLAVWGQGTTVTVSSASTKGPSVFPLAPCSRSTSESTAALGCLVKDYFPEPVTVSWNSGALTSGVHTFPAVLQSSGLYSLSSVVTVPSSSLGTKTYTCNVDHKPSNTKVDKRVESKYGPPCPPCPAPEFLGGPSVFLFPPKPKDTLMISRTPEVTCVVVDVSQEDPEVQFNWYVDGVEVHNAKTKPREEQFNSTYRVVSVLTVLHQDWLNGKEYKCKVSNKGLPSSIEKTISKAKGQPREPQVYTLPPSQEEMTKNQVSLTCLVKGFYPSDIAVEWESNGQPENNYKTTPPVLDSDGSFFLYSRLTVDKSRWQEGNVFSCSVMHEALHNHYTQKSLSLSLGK
light: DIQMTQSPSSLSASVGDRVTMTCKSSQSLFNSGNQKNYLTWYQQKPGKAPKLLIYWASTRESGVPSRFSGSGSGTDFTLTISSLQPEDFATYYCQNDYSYPLTFGGGTKLEIKRTVAAPSVFIFPPSDEQLKSGTASVVCLLNNFYPREAKVQWKVDNALQSGNSQESVTEQDSKDSTYSLSSTLTLSKADYEKHKVYACEVTHQGLSSPVTKSFNRGEC
notes: as for B1
B3: 1B6-huVH3huVL1 (antibody, human IgG4 S228P, kappa)
heavy: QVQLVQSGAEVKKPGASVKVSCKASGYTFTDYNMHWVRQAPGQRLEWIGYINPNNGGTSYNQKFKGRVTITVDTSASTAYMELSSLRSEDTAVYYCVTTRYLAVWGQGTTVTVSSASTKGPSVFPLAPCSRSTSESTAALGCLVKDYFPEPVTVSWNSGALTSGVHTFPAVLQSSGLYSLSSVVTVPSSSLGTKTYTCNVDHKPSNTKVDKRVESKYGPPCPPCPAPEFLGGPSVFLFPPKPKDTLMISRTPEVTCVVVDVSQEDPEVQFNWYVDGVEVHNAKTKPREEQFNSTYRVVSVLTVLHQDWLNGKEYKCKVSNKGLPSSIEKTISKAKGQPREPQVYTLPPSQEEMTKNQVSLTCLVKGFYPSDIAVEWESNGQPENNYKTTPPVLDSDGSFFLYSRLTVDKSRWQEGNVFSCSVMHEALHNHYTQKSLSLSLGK
light: DIVMTQSPSSLSVSVGDRVTMTCKSSQSLFNSGNQKNYLTWYQQKPGKAPKLLIYWASTRESGVPDRFSGSGSGTDFTLTISSVQPEDFATYFCQNDYSYPLTFGGGTKLEIKRTVAAPSVFIFPPSDEQLKSGTASVVCLLNNFYPREAKVQWKVDNALQSGNSQESVTEQDSKDSTYSLSSTLTLSKADYEKHKVYACEVTHQGLSSPVTKSFNRGEC
notes: humanized 1B6, human IgG4, kappa; also called P04887
B4: 1B6-huVH3huVL3 (antibody, human IgG4 S228P, kappa)
heavy: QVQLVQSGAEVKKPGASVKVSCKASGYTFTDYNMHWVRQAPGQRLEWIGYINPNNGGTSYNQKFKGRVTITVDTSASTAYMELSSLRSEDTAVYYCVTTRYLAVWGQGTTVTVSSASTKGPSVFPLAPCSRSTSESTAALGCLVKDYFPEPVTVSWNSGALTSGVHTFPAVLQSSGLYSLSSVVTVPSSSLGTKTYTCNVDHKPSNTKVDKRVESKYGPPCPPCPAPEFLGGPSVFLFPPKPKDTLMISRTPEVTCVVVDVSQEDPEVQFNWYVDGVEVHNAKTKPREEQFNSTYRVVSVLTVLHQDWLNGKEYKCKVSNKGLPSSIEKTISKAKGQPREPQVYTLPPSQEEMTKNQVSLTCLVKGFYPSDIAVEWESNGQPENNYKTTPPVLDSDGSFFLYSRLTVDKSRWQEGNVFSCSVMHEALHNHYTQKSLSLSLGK
light: DIQMTQSPSSLSASVGDRVTITCRSSQSLFNSGNQKNYLTWYQQKPGKAPKLLIYWASTRESGVPSRFSGSGSGTDFTLTISSLQPEDFATYYCQNDYSYPLTFGGGTKLEIKRTVAAPSVFIFPPSDEQLKSGTASVVCLLNNFYPREAKVQWKVDNALQSGNSQESVTEQDSKDSTYSLSSTLTLSKADYEKHKVYACEVTHQGLSSPVTKSFNRGEC
notes: as for B1
B5: 1B6-huVH4huVL2 (antibody, human IgG4 S228P, kappa)
heavy: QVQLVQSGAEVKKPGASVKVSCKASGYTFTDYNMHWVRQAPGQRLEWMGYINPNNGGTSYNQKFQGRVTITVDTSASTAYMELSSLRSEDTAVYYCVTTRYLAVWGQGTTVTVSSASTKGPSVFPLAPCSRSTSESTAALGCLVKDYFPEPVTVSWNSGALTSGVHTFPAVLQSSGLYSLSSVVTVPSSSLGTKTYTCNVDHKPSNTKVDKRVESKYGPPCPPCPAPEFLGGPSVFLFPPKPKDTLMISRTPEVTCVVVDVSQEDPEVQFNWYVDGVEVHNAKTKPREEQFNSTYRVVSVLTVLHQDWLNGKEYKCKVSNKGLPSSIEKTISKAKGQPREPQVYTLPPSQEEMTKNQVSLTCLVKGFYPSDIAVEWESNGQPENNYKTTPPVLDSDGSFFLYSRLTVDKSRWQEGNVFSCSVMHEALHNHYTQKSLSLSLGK
light: DIQMTQSPSSLSASVGDRVTMTCKSSQSLFNSGNQKNYLTWYQQKPGKAPKLLIYWASTRESGVPSRFSGSGSGTDFTLTISSLQPEDFATYYCQNDYSYPLTFGGGTKLEIKRTVAAPSVFIFPPSDEQLKSGTASVVCLLNNFYPREAKVQWKVDNALQSGNSQESVTEQDSKDSTYSLSSTLTLSKADYEKHKVYACEVTHQGLSSPVTKSFNRGEC
notes: as for B1
B6: 1B6-huVH4huVL3 (antibody, human IgG4 S228P, kappa)
heavy: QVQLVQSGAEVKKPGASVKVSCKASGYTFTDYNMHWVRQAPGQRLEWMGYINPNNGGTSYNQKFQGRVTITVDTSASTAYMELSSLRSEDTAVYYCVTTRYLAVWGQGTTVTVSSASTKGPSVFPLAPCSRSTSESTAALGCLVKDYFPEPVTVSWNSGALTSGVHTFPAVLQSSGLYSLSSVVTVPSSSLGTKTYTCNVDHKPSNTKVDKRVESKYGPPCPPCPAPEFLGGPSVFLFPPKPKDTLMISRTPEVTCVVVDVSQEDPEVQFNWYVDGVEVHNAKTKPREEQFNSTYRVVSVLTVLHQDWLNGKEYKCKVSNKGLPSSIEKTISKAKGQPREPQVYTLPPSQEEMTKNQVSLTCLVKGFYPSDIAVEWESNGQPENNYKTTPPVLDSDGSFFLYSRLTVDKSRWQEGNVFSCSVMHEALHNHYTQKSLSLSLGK
light: DIQMTQSPSSLSASVGDRVTITCRSSQSLFNSGNQKNYLTWYQQKPGKAPKLLIYWASTRESGVPSRFSGSGSGTDFTLTISSLQPEDFATYYCQNDYSYPLTFGGGTKLEIKRTVAAPSVFIFPPSDEQLKSGTASVVCLLNNFYPREAKVQWKVDNALQSGNSQESVTEQDSKDSTYSLSSTLTLSKADYEKHKVYACEVTHQGLSSPVTKSFNRGEC
notes: humanized 1B6, human IgG4, kappa; also called P04891
B7: 1B6-huVH5huVL2 (antibody, human IgG4 S228P, kappa)
heavy: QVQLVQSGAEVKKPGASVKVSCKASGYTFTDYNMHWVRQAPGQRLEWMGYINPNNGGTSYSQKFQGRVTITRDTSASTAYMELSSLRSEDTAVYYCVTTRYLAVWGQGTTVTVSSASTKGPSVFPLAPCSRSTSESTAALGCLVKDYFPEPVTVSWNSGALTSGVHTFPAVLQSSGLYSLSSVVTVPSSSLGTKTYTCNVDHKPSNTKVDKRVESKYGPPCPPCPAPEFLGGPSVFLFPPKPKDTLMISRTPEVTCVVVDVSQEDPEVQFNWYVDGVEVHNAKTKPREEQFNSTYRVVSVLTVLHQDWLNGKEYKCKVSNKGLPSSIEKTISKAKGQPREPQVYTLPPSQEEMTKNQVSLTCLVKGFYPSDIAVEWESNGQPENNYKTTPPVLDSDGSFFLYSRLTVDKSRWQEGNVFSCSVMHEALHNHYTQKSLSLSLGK
light: DIQMTQSPSSLSASVGDRVTMTCKSSQSLFNSGNQKNYLTWYQQKPGKAPKLLIYWASTRESGVPSRFSGSGSGTDFTLTISSLQPEDFATYYCQNDYSYPLTFGGGTKLEIKRTVAAPSVFIFPPSDEQLKSGTASVVCLLNNFYPREAKVQWKVDNALQSGNSQESVTEQDSKDSTYSLSSTLTLSKADYEKHKVYACEVTHQGLSSPVTKSFNRGEC
notes: as for B1
B8: 1B6-huVH5huVL3 (antibody, human IgG4 S228P, kappa)
heavy: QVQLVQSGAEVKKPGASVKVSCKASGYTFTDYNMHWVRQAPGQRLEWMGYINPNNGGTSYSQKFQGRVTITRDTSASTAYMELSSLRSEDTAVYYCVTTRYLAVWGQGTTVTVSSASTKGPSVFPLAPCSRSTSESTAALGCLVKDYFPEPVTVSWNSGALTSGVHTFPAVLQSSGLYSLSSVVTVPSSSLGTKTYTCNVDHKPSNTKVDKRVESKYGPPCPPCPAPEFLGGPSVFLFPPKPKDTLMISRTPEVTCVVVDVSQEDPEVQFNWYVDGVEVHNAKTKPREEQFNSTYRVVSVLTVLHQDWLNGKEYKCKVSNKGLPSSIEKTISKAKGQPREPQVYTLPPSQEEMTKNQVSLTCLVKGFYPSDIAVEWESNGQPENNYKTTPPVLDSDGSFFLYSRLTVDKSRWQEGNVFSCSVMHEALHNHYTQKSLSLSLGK
light: DIQMTQSPSSLSASVGDRVTITCRSSQSLFNSGNQKNYLTWYQQKPGKAPKLLIYWASTRESGVPSRFSGSGSGTDFTLTISSLQPEDFATYYCQNDYSYPLTFGGGTKLEIKRTVAAPSVFIFPPSDEQLKSGTASVVCLLNNFYPREAKVQWKVDNALQSGNSQESVTEQDSKDSTYSLSSTLTLSKADYEKHKVYACEVTHQGLSSPVTKSFNRGEC
notes: as for B1
B9: 1E7-huVH3huVL2 (antibody, human IgG4 S228P, kappa)
heavy: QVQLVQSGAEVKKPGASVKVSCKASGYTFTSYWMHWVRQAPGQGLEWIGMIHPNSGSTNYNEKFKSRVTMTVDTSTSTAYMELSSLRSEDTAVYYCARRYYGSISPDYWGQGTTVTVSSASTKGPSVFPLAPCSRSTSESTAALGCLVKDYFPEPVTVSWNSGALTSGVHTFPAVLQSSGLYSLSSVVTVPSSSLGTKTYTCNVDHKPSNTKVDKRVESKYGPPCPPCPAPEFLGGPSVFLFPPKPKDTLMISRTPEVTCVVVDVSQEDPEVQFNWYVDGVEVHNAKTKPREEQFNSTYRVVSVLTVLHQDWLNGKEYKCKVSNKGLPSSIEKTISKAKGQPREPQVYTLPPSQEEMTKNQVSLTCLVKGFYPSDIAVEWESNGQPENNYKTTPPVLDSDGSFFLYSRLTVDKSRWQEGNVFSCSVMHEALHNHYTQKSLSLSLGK
light: DIQMTQSPSSLSASVGDRVTMTCKSSQSLLNSGNQKNYLTWYQQKPGKAPKLLIYWASTRESGVPSRFSGSGSGTDFTLTISSLQPEDFATYYCQNDYSYPFTFGGGTKLEIKRTVAAPSVFIFPPSDEQLKSGTASVVCLLNNFYPREAKVQWKVDNALQSGNSQESVTEQDSKDSTYSLSSTLTLSKADYEKHKVYACEVTHQGLSSPVTKSFNRGEC
notes: humanized 1E7, human IgG4, kappa
B10: 1E7-huVH1huVL1 (antibody, human IgG4 S228P, kappa)
heavy: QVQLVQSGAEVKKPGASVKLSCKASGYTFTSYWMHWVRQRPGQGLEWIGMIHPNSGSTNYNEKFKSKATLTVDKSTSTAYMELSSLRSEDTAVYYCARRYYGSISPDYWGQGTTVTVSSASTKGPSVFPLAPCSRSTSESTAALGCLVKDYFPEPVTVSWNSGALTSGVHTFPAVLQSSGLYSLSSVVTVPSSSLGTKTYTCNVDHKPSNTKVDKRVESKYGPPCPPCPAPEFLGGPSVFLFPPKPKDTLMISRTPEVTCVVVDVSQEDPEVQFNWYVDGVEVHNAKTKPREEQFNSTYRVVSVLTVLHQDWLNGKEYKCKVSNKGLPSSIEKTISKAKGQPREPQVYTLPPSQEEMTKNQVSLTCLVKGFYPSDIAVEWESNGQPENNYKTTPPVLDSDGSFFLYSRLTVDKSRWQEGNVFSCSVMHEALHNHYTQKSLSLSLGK
light: DIVMTQSPSSLSVSVGDRVTMTCKSSQSLLNSGNQKNYLTWYQQKPGQPPKLLIYWASTRESGVPDRFSGSGSGTDFTLTISSVQPEDFATYYCQNDYSYPFTFGGGTKLEIKRTVAAPSVFIFPPSDEQLKSGTASVVCLLNNFYPREAKVQWKVDNALQSGNSQESVTEQDSKDSTYSLSSTLTLSKADYEKHKVYACEVTHQGLSSPVTKSFNRGEC
notes: as for B9
B11: 1E7-huVH1huVL2 (antibody, human IgG4 S228P, kappa)
heavy: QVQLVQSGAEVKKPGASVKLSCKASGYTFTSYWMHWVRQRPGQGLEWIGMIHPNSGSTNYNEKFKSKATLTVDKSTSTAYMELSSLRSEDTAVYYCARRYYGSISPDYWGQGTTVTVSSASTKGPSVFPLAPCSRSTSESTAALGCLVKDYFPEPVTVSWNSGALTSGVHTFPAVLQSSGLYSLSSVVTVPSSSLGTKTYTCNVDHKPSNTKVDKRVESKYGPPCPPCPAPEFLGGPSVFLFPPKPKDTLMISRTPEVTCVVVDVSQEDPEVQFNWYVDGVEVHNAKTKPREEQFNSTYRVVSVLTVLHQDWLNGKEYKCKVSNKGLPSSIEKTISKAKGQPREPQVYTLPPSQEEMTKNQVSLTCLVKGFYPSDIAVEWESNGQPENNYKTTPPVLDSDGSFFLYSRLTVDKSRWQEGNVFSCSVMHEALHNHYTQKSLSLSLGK
light: DIQMTQSPSSLSASVGDRVTMTCKSSQSLLNSGNQKNYLTWYQQKPGKAPKLLIYWASTRESGVPSRFSGSGSGTDFTLTISSLQPEDFATYYCQNDYSYPFTFGGGTKLEIKRTVAAPSVFIFPPSDEQLKSGTASVVCLLNNFYPREAKVQWKVDNALQSGNSQESVTEQDSKDSTYSLSSTLTLSKADYEKHKVYACEVTHQGLSSPVTKSFNRGEC
notes: as for B9
B12: 1E7-huVH2huVL1 (antibody, human IgG4 S228P, kappa)
heavy: not shown
light: DIVMTQSPSSLSVSVGDRVTMTCKSSQSLLNSGNQKNYLTWYQQKPGQPPKLLIYWASTRESGVPDRFSGSGSGTDFTLTISSVQPEDFATYYCQNDYSYPFTFGGGTKLEIKRTVAAPSVFIFPPSDEQLKSGTASVVCLLNNFYPREAKVQWKVDNALQSGNSQESVTEQDSKDSTYSLSSTLTLSKADYEKHKVYACEVTHQGLSSPVTKSFNRGEC
notes: as for B9
B13: 1E7-huVH2huVL2 (antibody, human IgG4 S228P, kappa)
heavy: not shown
light: DIQMTQSPSSLSASVGDRVTMTCKSSQSLLNSGNQKNYLTWYQQKPGKAPKLLIYWASTRESGVPSRFSGSGSGTDFTLTISSLQPEDFATYYCQNDYSYPFTFGGGTKLEIKRTVAAPSVFIFPPSDEQLKSGTASVVCLLNNFYPREAKVQWKVDNALQSGNSQESVTEQDSKDSTYSLSSTLTLSKADYEKHKVYACEVTHQGLSSPVTKSFNRGEC
notes: humanized 1E7, human IgG4, kappa; also called P04898
B14: 1E7-huVH3huVL1 (antibody, human IgG4 S228P, kappa)
heavy: not shown
light: DIVMTQSPSSLSVSVGDRVTMTCKSSQSLLNSGNQKNYLTWYQQKPGQPPKLLIYWASTRESGVPDRFSGSGSGTDFTLTISSVQPEDFATYYCQNDYSYPFTFGGGTKLEIKRTVAAPSVFIFPPSDEQLKSGTASVVCLLNNFYPREAKVQWKVDNALQSGNSQESVTEQDSKDSTYSLSSTLTLSKADYEKHKVYACEVTHQGLSSPVTKSFNRGEC
notes: as for B9
B15: 1E7-huVH3huVL3 (antibody, human IgG4 S228P, kappa)
heavy: not shown
light: DIQMTQSPSSLSASVGDRVTITCRSSQSLLNSGNQKNYLTWYQQKPGKAPKLLIYWASTRESGVPSRFSGSGSGTDFTLTISSLQPEDFATYYCQNDYSYPFTFGGGTKLEIKRTVAAPSVFIFPPSDEQLKSGTASVVCLLNNFYPREAKVQWKVDNALQSGNSQESVTEQDSKDSTYSLSSTLTLSKADYEKHKVYACEVTHQGLSSPVTKSFNRGEC
notes: as for B9
B16: 1E7-huVH4huVL2 (antibody, human IgG4 S228P, kappa)
heavy: not shown
light: DIQMTQSPSSLSASVGDRVTMTCKSSQSLLNSGNQKNYLTWYQQKPGKAPKLLIYWASTRESGVPSRFSGSGSGTDFTLTISSLQPEDFATYYCQNDYSYPFTFGGGTKLEIKRTVAAPSVFIFPPSDEQLKSGTASVVCLLNNFYPREAKVQWKVDNALQSGNSQESVTEQDSKDSTYSLSSTLTLSKADYEKHKVYACEVTHQGLSSPVTKSFNRGEC
notes: humanized 1E7, human IgG4, kappa; also called P04902
B17: 1E7-huVH4huVL3 (antibody, human IgG4 S228P, kappa)
heavy: not shown
light: DIQMTQSPSSLSASVGDRVTITCRSSQSLLNSGNQKNYLTWYQQKPGKAPKLLIYWASTRESGVPSRFSGSGSGTDFTLTISSLQPEDFATYYCQNDYSYPFTFGGGTKLEIKRTVAAPSVFIFPPSDEQLKSGTASVVCLLNNFYPREAKVQWKVDNALQSGNSQESVTEQDSKDSTYSLSSTLTLSKADYEKHKVYACEVTHQGLSSPVTKSFNRGEC
notes: as for B9

Columns and labels:
[1] = target: T1, claudin-18.2 antigen (manufacturer: …); test: ELISA, plate coated with claudin-18.2 antigen
Description: The ELISA plates were washed three times with PBST and blocked with 5% PBS-milk for 2 h at room temperature. The ELISA plate was washed three times with PBST, and the diluted antibodies were added to the ELISA plate, 30 μL per well, and incubated at room temperature for 60 min. The plates were washed three times with PBST and incubated with anti-human IgG-Fc-HRP (abcam, ab97225) for 50 min at room temperature. The plate was washed 12 times with PBST, and TMB was added, 30 μL per well. The reaction was terminated with stop solution and OD450 was read. The ELISA affinity EC50 was calculated.

[2] = target: T1, claudin-18.2 antigen (manufacturer: …); test: Gator label-free kinetics, antibody loaded, antigen 2000-500 nM
Description: The GATOR instrument and associated software were opened and the Kinetics experimental mode was selected. After data collection, Kinetics fitting was performed to calculate the affinity kinetic parameters. The correlation coefficient R² of all antibodies in the Global fitting mode was greater than 0.95, which met the system suitability requirements and the results were reliable.

Row | Binder | EC50 [1] [mg/L] | Kd [2] [nM] | koff [2] [s⁻¹] | kon [2] [M⁻¹ s⁻¹]
1 | B1 | 0.0978 | 4.57 | 6.36e-05 | 13900
2 | B2 | 0.192 | 4.86 | 6.78e-05 | 13900
3 | B3 | 0.0569 | 0.98 | 1.27e-05 | 13000
4 | B4 | 0.209 | 8.11 | 8.56e-05 | 10600
5 | B5 | 0.21 | 7.06 | 7.06e-05 | 9990
6 | B6 | 0.346 | 7.24 | 8.07e-05 | 11100
7 | B7 | 0.202 | 10.6 | 0.000144 | 13600
8 | B8 | 0.174 | 7.51 | 9.78e-05 | 13000
9 | B9 | 0.56 | 2.02 | 2.08e-05 | 10300
10 | B10 | 0.309 | 3.58 | 3.81e-05 | 10600
11 | B11 | 0.156 | 5.08 | 5.56e-05 | 10900
12 | B12 | 0.436 | 0.277 | 2.65e-06 | 9550
13 | B13 | 0.262 | 21.6 | 0.000269 | 12400
14 | B14 | 0.606 | 12 | 0.000132 | 11000
15 | B15 | 0.509 | 13.5 | 0.000149 | 11000
16 | B16 | 0.309 | 4.6 | 4.86e-05 | 10600
17 | B17 | 0.441 | 6.19 | 6.27e-05 | 10100
